Among the data in US20110301228A1 are relative fluorescence units released on cleavage of the FRET peptide (medium of AdhGRE.MMP1-infected, DEX-treated cells) (relative fluorescence units) and relative fluorescence units released on cleavage of the FRET peptide (medium of AdhGRE.MMP1-infected, untreated cells) (relative fluorescence units) values, retold here.

In the experiment the target is 5-FAM/QXL520 labeled MMP substrate FRET peptide (SensoLyte 520 MMP-1 Assay Kit, AnaSpec). Put plainly: cell-based or functional assay.

Regarding “recombinant human MMP1 (wild-type), secreted by AdhGRE.MMP1-infected HTM cells and activated with APMA (active form, 41 kDa) (from UniProt P03956 100-469) (enzyme)”, the relative fluorescence units released on cleavage of the FRET peptide (medium of AdhGRE.MMP1-infected, DEX-treated cells) (relative fluorescence units) amounted to 59000 and the relative fluorescence units released on cleavage of the FRET peptide (medium of AdhGRE.MMP1-infected, untreated cells) (relative fluorescence units) came out at 5710.
